Legend:
PD-L1 (human) [1] = target: PD-L1 (human) (UniProt Q9NZQ7); test: flow cytometry, CHO cells stably expressing PD-L1
CD28 (human) [2] = target: CD28 (human) (UniProt P10747); test: flow cytometry, Jurkat cells (CD28)
human CTLA-4 (human) = human CTLA-4 (human) (UniProt P16410); test: flow cytometry, CHO cells expressing CTLA4
PD-L1 (human) [3] = target: PD-L1 (human) (UniProt Q9NZQ7); test: flow cytometry, CHO cells expressing PD-L1
CD28 (human) [4] = target: CD28 (human) (UniProt P10747)
PD-L1 (human) [5] = target: PD-L1 (human) (UniProt Q9NZQ7)

PD-L1 (human), sequence (Q9NZQ7 19-290): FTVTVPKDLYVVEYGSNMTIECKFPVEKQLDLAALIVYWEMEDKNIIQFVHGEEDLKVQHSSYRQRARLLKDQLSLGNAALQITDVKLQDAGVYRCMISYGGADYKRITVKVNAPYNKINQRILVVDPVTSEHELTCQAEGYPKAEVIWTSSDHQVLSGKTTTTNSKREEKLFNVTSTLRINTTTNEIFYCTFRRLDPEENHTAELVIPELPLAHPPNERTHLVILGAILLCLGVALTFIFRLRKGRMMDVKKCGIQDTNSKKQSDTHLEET
human CTLA-4 (human), sequence (P16410 36-223): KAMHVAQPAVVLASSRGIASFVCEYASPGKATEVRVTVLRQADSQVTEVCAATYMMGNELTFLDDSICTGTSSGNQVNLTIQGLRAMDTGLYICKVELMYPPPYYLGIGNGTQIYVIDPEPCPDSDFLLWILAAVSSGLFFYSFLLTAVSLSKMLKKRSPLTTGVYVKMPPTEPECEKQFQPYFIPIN
wild-type CD80 IgV (SEQ ID NO: 150)-Fc (inert) with GSG4S linker (Fc fusion), sequence (chain): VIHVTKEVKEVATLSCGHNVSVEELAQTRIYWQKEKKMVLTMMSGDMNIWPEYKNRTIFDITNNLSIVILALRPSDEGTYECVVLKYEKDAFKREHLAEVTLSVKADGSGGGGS

| MFI at 33.3 nM (CD28 (human) [2]) [MFI] | MFI at 33.3 nM (human CTLA-4 (human)) [MFI] | Jurkat/IL2 reporter RLU at 50 nM, K562/OKT3/PD-L1 aAPC (CD28 (human) [4]) [RLU] | Jurkat/IL2 reporter RLU at 50 nM, K562/OKT3/PD-L1 aAPC (PD-L1 (human) [5]) [RLU] | Substance | other results |
| --- | --- | --- | --- | --- | --- |
|  |  |  |  | wild-type CD80 IgV (SEQ ID NO: 150)-Fc (inert) with GSG4S linker (Fc fusion) | MFI at 33.3 nM (PD-L1 (human) [1]): 47 MFI |
| 16 | 18300 |  |  | CD80 H18Y/E35D/V68M/A71G/R94Q/E95V IgV-Fc (Fc fusion) | MFI at 33.3 nM (PD-L1 (human) [3]): 15000 MFI |
|  | 17000 |  |  | CD80 E35D/D46E/M47I/T62A/V68M/L85M/Y87C IgV-Fc (Fc fusion) |  |
| 16 | 91 |  |  | CD80 R29C/E35D/M47L/V68M/A71G/L85M IgV-Fc (Fc fusion) |  |
| 15.7 | 141 |  |  | CD80 T13R/Q33L/E35D/M47L/V68M/L85M IgV-Fc (Fc fusion) | Fold change to WT CD80 (CD28 (human) [2]): 0.5 fold; Fold change to WT CD80 (PD-L1 (human) [3]): 62.7 fold; MFI at 33.3 nM (PD-L1 (human) [3]): 3230 MFI |
| 15 | 107 |  |  | CD80 Q33R/E35D/M38I/M47L/V68M IgV-Fc (Fc fusion) | Fold change to WT CD80 (CD28 (human) [2]): 0.5 fold; Fold change to WT CD80 (PD-L1 (human) [3]): 320 fold; MFI at 33.3 nM (PD-L1 (human) [3]): 16500 MFI |
| 4040 | 18600 |  |  | CD80 H18Y/E35D/M47I/V68M/Y87N IgV-Fc (Fc fusion) | MFI at 33.3 nM (PD-L1 (human) [3]): 15000 MFI |
|  |  | 1320 | 1320 | CD80 E35D/M38T/D46E/M47V/N48S IgV-Fc (inert) (Fc fusion) |  |
| 14 | 96 |  |  | CD80 E35D/D46E/M47L/V68M/T79M/L85M/L97Q IgV-Fc (Fc fusion) | Fold change to WT CD80 (CD28 (human) [2]): 0.5 fold; Fold change to WT CD80 (PD-L1 (human) [3]): 89.7 fold; MFI at 33.3 nM (PD-L1 (human) [3]): 4620 MFI |
| 201 | 16000 |  |  | CD80 E35D/M47V/V68M/L85M IgV-Fc (Fc fusion) | MFI at 33.3 nM (PD-L1 (human) [3]): 9180 MFI |
|  |  | 1500 | 1500 | CD80 I30V/E35D/M47V/A71G/A91V IgV-Fc (inert) (Fc fusion) |  |
|  |  | 1120 | 1120 | CD80 V22L/Q27H/E35D/M47I/A71G IgV-Fc (inert) (Fc fusion) |  |
| 334 | 18400 |  |  | CD80 H18Y/E35D/M47L/Y53F/V68M/A71G/K93R/E95V IgV-Fc (Fc fusion) | Fold change to WT CD80 (human CTLA-4 (human)): 10.5 fold; MFI at 33.3 nM (PD-L1 (human) [3]): 23400 MFI |
|  |  | 1310 | 1310 | CD80 Q27H/E35D/M47I/L85Q/D90G IgV-Fc (inert) (Fc fusion) |  |
| 191 | 16900 |  |  | CD80 V22D/E24D/E35D/M47V/V68M IgV-Fc (Fc fusion) |  |
|  |  | 213 | 213 | CD80 Q33L/E35D/M47I/N48D/A71G IgV-Fc (inert) (Fc fusion) |  |
| 540 | 20600 |  |  | CD80 S21P/E35D/K37E/D46E/M47I/V68M IgV-Fc (Fc fusion) |  |
|  |  | 1230 | 1230 | CD80 H18Y/E35D/N48K IgV-Fc (inert) (Fc fusion) |  |
| 13.8 | 193 |  |  | CD80 T13R/Q33R/E35D/M38I/M47L/V68M IgV-Fc (Fc fusion) | Fold change to WT CD80 (PD-L1 (human) [3]): 87 fold; MFI at 33.3 nM (PD-L1 (human) [3]): 4480 MFI |

| MFI at 33.3 nM (CD28 (human) [2]) [MFI] | MFI at 33.3 nM (human CTLA-4 (human)) [MFI] | Jurkat/IL2 reporter RLU at 50 nM, K562/OKT3/PD-L1 aAPC (CD28 (human) [4]) [RLU] | Jurkat/IL2 reporter RLU at 50 nM, K562/OKT3/PD-L1 aAPC (PD-L1 (human) [5]) [RLU] | Substance | other results |
| --- | --- | --- | --- | --- | --- |
|  |  | 683 | 683 | CD80 E35D/D46E/M47V/A71D IgV-Fc (inert) (Fc fusion) |  |
|  |  | 594 | 594 | CD80 E35D/T41S/M47V/L97Q IgV-Fc (inert) (Fc fusion) |  |
|  |  | 1440 | 1440 | CD80 E35D/M47I/L85Q/D90G IgV-Fc (inert) (Fc fusion) |  |
|  | 13900 |  |  | CD80 E35D/M47V/V68M/L85M/Y87D IgV-Fc (Fc fusion) | MFI at 33.3 nM (PD-L1 (human) [3]): 1720 MFI |
| 14.6 | 109 |  |  | CD80 T13R/Q27L/Q33L/E35D/T41S/M47V/N48K/V68M/L85M IgV-Fc (Fc fusion) | Fold change to WT CD80 (CD28 (human) [2]): 0.5 fold; Fold change to WT CD80 (PD-L1 (human) [3]): 63.5 fold; MFI at 33.3 nM (PD-L1 (human) [3]): 3270 MFI |
|  |  | 580 | 580 | CD80 T28Y/Q33H/E35D/D46V/M47I/A71G IgV-Fc (inert) (Fc fusion) |  |
| 15.2 | 19100 |  |  | CD80 T13R/Q33R/E35D/M38I/M47L/V68M/L85M/R94Q IgV-Fc (Fc fusion) | MFI at 33.3 nM (PD-L1 (human) [3]): 20400 MFI |
|  |  |  |  | CD80 E35D/M47V/N48K/V68M/K89N IgV-Fc, GS(G4S)5 linker (Fc fusion) | MFI at 33.3 nM (PD-L1 (human) [1]): 22700 MFI |
|  |  | 1380 | 1380 | CD80 E35D/D46E/M47V/N63D/L85Q IgV-Fc (inert) (Fc fusion) |  |
|  |  | 1190 | 1190 | CD80 E35D/M47V/A71G IgV-Fc (inert) (Fc fusion) |  |
|  |  | 1670 | 1670 | CD80 E35D/T41S/M43V/M47I/L70M/A71G IgV-Fc (inert) (Fc fusion) |  |
|  |  | 1270 | 1270 | CD80 E35D/T41S/M43I/M47V/A71G IgV-Fc (inert) (Fc fusion) |  |
| 284 | 20100 |  |  | CD80 S21P/E35D/K37E/D46E/M47I/V68M/R94L IgV-Fc (Fc fusion) |  |
|  |  | 1140 | 1140 | CD80 V22D/E35D/M47L/L85Q IgV-Fc (inert) (Fc fusion) |  |
|  |  | 897 | 897 | CD80 E35D/M47V/N48T/L85Q IgV-Fc (inert) (Fc fusion) |  |
|  |  | 1540 | 1540 | CD80 V22D/E35D/M47L/L70M/L97Q IgV-Fc (inert) (Fc fusion) |  |
|  |  | 315 | 315 | CD80 E35D/L85Q/K93T/E95V/L97Q IgV-Fc (inert) (Fc fusion) |  |
|  |  | 1750 | 1750 | CD80 A26E/E35D/M47L/A71G IgV-Fc (inert) (Fc fusion) |  |
|  |  | 1090 | 1090 | CD80 E35D/M43I/M47V/K89N IgV-Fc (inert) (Fc fusion) |  |

| MFI at 33.3 nM (CD28 (human) [2]) [MFI] | MFI at 33.3 nM (human CTLA-4 (human)) [MFI] | Jurkat/IL2 reporter RLU at 50 nM, K562/OKT3/PD-L1 aAPC (CD28 (human) [4]) [RLU] | Jurkat/IL2 reporter RLU at 50 nM, K562/OKT3/PD-L1 aAPC (PD-L1 (human) [5]) [RLU] | Substance | other results |
| --- | --- | --- | --- | --- | --- |
|  |  | 1020 | 1020 | CD80 E35D/T41S/M47V/A71G/K89N IgV-Fc (inert) (Fc fusion) |  |
|  |  | 1510 | 1510 | CD80 H18Y/A26E/E35D/M47L/L85Q/D90G IgV-Fc (inert) (Fc fusion) |  |
| 15 | 86 |  |  | CD80 Q33L/E35D/M47V/T62S/V68M/L85M IgV-Fc (Fc fusion) |  |
|  |  | 1570 | 1570 | CD80 E35D/M47I/T62S/L85Q IgV-Fc (inert) (Fc fusion) |  |
|  |  | 1190 | 1190 | CD80 E35D/A71G IgV-Fc (inert) (Fc fusion) |  |
|  |  | 282 | 282 | CD80 E35D/A71D/L72V/R73H/E81K IgV-Fc (inert) (Fc fusion) |  |
| 15 | 178 |  |  | CD80 Q27L/Q33L/E35D/T41S/M47V/N48K/V68M/L85M IgV-Fc (Fc fusion) | Fold change to WT CD80 (CD28 (human) [2]): 0.5 fold; Fold change to WT CD80 (PD-L1 (human) [3]): 320 fold; MFI at 33.3 nM (PD-L1 (human) [3]): 16500 MFI |
|  |  | 1380 | 1380 | CD80 H18Y/V22A/E35D/M47V/T62S/A71G IgV-Fc (inert) (Fc fusion) |  |
|  |  | 1120 | 1120 | CD80 E35D/T41S/M43I/A71G/D90G IgV-Fc (inert) (Fc fusion) |  |
| 15.7 | 146 |  |  | CD80 H18Y/E35D/M47L/Y53F/V68M/A71G IgV-Fc (Fc fusion) | Fold change to WT CD80 (CD28 (human) [2]): 0.5 fold; Fold change to WT CD80 (PD-L1 (human) [3]): 99.1 fold; MFI at 33.3 nM (PD-L1 (human) [3]): 5100 MFI |
| 16.7 | 139 |  |  | CD80 H18Y/E35D/M38I/M47L/V68M/L85M IgV-Fc (Fc fusion) | Fold change to WT CD80 (CD28 (human) [2]): 0.5 fold; Fold change to WT CD80 (PD-L1 (human) [3]): 69.7 fold; MFI at 33.3 nM (PD-L1 (human) [3]): 3590 MFI |
|  |  | 1460 | 1460 | CD80 E35D/D46V/M47L/V68M/L85Q/E88D IgV-Fc (inert) (Fc fusion) |  |
|  | 15500 |  |  | CD80 E35D/D46E/M47V/V68M/L85Q IgV-Fc (Fc fusion) | MFI at 33.3 nM (PD-L1 (human) [3]): 1720 MFI |
|  |  | 168 | 168 | CD80 Q33L/E35D/M43I/Y53F/T62S/L85Q IgV-Fc (inert) (Fc fusion) |  |
|  |  | 1720 | 1720 | CD80 E35D/Y53H/A71G/D90G/L97R IgV-Fc (inert) (Fc fusion) |  |
| 16 | 105 |  |  | CD80 T13R/Q33L/E35D/M47V/T62S/V68M/L85M IgV-Fc (Fc fusion) | Fold change to WT CD80 (CD28 (human) [2]): 0.5 fold; Fold change to WT CD80 (PD-L1 (human) [3]): 77 fold; MFI at 33.3 nM (PD-L1 (human) [3]): 3970 MFI |
|  |  | 1320 | 1320 | CD80 E35D/M47L/A71G/L85M/F92Y IgV-Fc (inert) (Fc fusion) |  |
|  | 19500 |  |  | CD80 H18Y/E35D/M47L/V68M/A71G/L85M IgV-Fc (Fc fusion) | MFI at 33.3 nM (PD-L1 (human) [3]): 18700 MFI |
|  |  | 680 | 680 | CD80 E35D/M38T/M43V/M47V/N48R/L85Q IgV-Fc (inert) (Fc fusion) |  |
